# According to publication PMC10974336, “Characterization of a Novel Hyperthermophilic GH1 β-Glucosidase from Acidilobus sp. and Its Application in the Hydrolysis of Soybean Isoflavone Glycosides” (Microorganisms, 2024):
# What was measured:
# [1] = substrate: O=[N+]([O-])c1ccc(O[C@@H]2O[C@H](CO)[C@@H](O)[C@H](O)[C@H]2O)cc1; experiment: purified protein; assay type: biochemical, Acidilobus sp. 7A; settings: pH 5.0 sodium citrate, 100 °C, pNPG 0.2 to 2 mM
# [2] = substrate: O=[N+]([O-])c1ccc(O[C@@H]2O[C@H](CO)[C@@H](O)[C@H](O)[C@H]2O)cc1; experiment: cells, lysate or membranes; assay type: biochemical, Acidilobus sp. 7A; settings: crude enzyme, mutant BglAcN, 30 bp deletion, printed as nine residues (…) at positions 298 to 307, pH 5.0
Protein,Km [1] [mM],Vmax [1] [µmol/min/mg],kcat [1] [s⁻¹],kcat/Km [1] [M⁻¹ s⁻¹],Km [2] [mM],Vmax [2] [µmol/min/mg],kcat [2] [s⁻¹],kcat/Km [2] [M⁻¹ s⁻¹]
"BglAc (Acidilobus sp. 7A) (protein, N-terminal 6xHis tag, pET-30a(+) NdeI/EcoRI, E. coli BL21(DE3), Ni-NTA; residues Glu208, Glu383, Gln19, His152, Asn207, Glu428, Trp429) MTVSFPKGFLFGWSQAGFQSEMGTPGSEDPNSDWYAWVHDRENIASGLVSGDLPENGPGYWGNYRRFHDAAQAMGLSAARIGVEWSRIFPKPTFDVKVHADVRGEEVASVDVSEQALEQLDRLANREAVNHYREMFSDLRSRGITFILNLYHWPLPLWLHDPIAIRRGNLSAPSGWLDVRAVVEFAKFAAYVAWKLDDLVYMYSTMNEPNVVWSHGFTQPKSGFPPGYLCFECSGKAMKNLLQAHARAYDIVKSMTKKPVGVIYATADWTPLTESEADRAAAEAAKAADRWAFFDMLSKGSPRDDLRGRLDWIGVNYYSRLVVRAGRSGFQVIPGYGFACEPNSVSPAGRPCSDFGWEFYPEGLYHALKDYWERYHLPLMVTENGAADEGDYLRPYYLVSHIYQVHRAMQEEVNVTGYLHWSLADNYEWASGFGKRFGLLMVDYETKRLYWRPSAFIYREIAKNNAITDEVEHLNRVPPLKPLRK",3.41,474,418,123000,–,–,–,–
"BglAc (Acidilobus sp. 7A; DEL298-307) (protein, N-terminal 6xHis tag, pET-30a(+) NdeI/EcoRI, E. coli BL21(DE3), Ni-NTA; residues Glu208, Glu383, Gln19, His152, Asn207, Glu428, Trp429) MTVSFPKGFLFGWSQAGFQSEMGTPGSEDPNSDWYAWVHDRENIASGLVSGDLPENGPGYWGNYRRFHDAAQAMGLSAARIGVEWSRIFPKPTFDVKVHADVRGEEVASVDVSEQALEQLDRLANREAVNHYREMFSDLRSRGITFILNLYHWPLPLWLHDPIAIRRGNLSAPSGWLDVRAVVEFAKFAAYVAWKLDDLVYMYSTMNEPNVVWSHGFTQPKSGFPPGYLCFECSGKAMKNLLQAHARAYDIVKSMTKKPVGVIYATADWTPLTESEADRAAAEAAKAADRWAFFDMLGRLDWIGVNYYSRLVVRAGRSGFQVIPGYGFACEPNSVSPAGRPCSDFGWEFYPEGLYHALKDYWERYHLPLMVTENGAADEGDYLRPYYLVSHIYQVHRAMQEEVNVTGYLHWSLADNYEWASGFGKRFGLLMVDYETKRLYWRPSAFIYREIAKNNAITDEVEHLNRVPPLKPLRK",–,–,–,–,8.58,288,260,30300
